# In US20050032692A1:
# Columns and labels:
# Cdk1 protein = Cdk1 protein (UniProt P06493); experiment: cell-based or functional assay
# [1] = target: CBP protein (CREB Binding Protein); experiment: cell-based or functional assay
# Cdk1 protein, sequence (P06493 whole entry): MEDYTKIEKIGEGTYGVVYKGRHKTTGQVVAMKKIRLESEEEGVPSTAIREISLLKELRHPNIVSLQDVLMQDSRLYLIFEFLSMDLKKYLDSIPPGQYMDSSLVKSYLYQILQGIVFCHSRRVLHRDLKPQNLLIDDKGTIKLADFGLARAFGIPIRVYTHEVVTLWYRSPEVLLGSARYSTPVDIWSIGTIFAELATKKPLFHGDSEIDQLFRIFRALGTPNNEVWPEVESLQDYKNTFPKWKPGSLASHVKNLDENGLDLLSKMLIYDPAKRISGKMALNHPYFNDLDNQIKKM
"FoxM1B transcriptional activity (6x FoxM1B TATA-luciferase reporter, U2OS cells) (Cdk1 protein) [% reduction]","FoxM1B transcriptional activity (6x FoxM1B TATA-luciferase reporter, U2OS cells) (% stimulation) [1]",Substance
80,,CMV T7-FoxM1B L641A mutant protein (from UniProt Q08050 1-763)
,50,T7-FoxM1B WT protein (CMV T7-FoxM1B WT) (from UniProt Q08050 1-763)
